Consider 4 molecules from article PMC4164947 (The Journal of Cell Biology, 2014).

The target of series [1] is C. elegans Vps4^E219Q (as used alone in light scattering and EM) (C. elegans). Description: SEC-MALS. On the technique in general: SEC sorts molecules by how far they enter the pores of the column.
The target in series [2] is C. elegans Vps32 (full length, wild type) (C. elegans). As to the kind of experiment: cryo-EM imaging.
Series [3] has as its target C. elegans Vps32^E94K (C. elegans). Description: SEC.
The series “negative staining EM” deals with the molecule itself. Description: negative staining EM.

A word on the stoichiometry N: it is the number of molecules, sites or subunits per partner or assembly. “C. elegans Vps4^E219Q (as used alone in light scattering and EM) (enzyme)”: the stoichiometry N in series [1] is 6. In the case of “C. elegans Vps32 (full length, wild type) (natural protein)”, the stoichiometry N in series [2] was determined as 800.

C. elegans Vps32^E94K (natural protein): the percent of the total protein in oligomers in series [3] is less than 5%.

B1: yeast Snf7^R52E (natural protein)
chain: MWSSLFGWTSSNAKNKESPTKAIVRLREHINLLSKKQSHLRTQITNQENEAEIFLTKGNKVMAKNALKKKKTIEQLLSKVEGTMESMEQQLFSIESANLNLETMRAMQEGAKAMKTIHSGLDIDKVDETMDEIREQVELGDEISDAISRPLITGANEVDEDELDEELDMLAQENANQETSKIVNNNVNAAPISENKVSLPSVPSNKIKQSENSVKDGEEEEDEEDEDEKALRELQAEMGL
B1: the binding result in “negative staining EM” is recorded as “binds”.
